According to paper doi:10.1101/2023.03.06.531442 (bioRxiv, 2023):

B1: mouse α-tubulin isotype α1C (natural protein)
chain: MRECISIHVGQAGVQIGNACWELYCLEHGIQPDGQMPSDKTIGGGDDSFNTFFSETGAGKHVPRAVFVDLEPTVIDEVRTGTYRQLFHPEQLITGKEDAANNYARGHYTIGKEIIDLVLDRIRKLADQCTGLQGFLVFHSFGGGTGSGFTSLLMERLSVDYGKKSKLEFSIYPAPQVSTAVVEPYNSILTTHTTLEHSDCAFMVDNEAIYDICRRNLDIERPTYTNLNRLISQIVSSITASLRFDGALNVDLTEFQTNLVPYPRIHFPLATYAPVISAEKAYHEQLTVAEITNACFEPANQMVKCDPRHGKYMACCLLYRGDVVPKDVNAAIATIKTKRTIQFVDWCPTGFKVGINYQPPTVVPGGDLAKVQRAVCMLSNTTAIAEAWARLDHKFDLMYAKRAFVHWYVGEGMEEGEFSEAREDMAALEKDYEEVGADSAEGDDEGEEY
B2: mouse α-tubulin isotype α4A (natural protein)
chain: MRECISVHVGQAGVQMGNACWELYCLEHGIQPDGQMPSDKTIGGGDDSFTTFFCETGAGKHVPRAVFVDLEPTVIDEIRNGPYRQLFHPEQLITGKEDAANNYARGHYTIGKEIIDPVLDRIRKLSDQCTGLQGFLVFHSFGGGTGSGFTSLLMERLSVDYGKKSKLEFSIYPAPQVSTAVVEPYNSILTTHTTLEHSDCAFMVDNEAIYDICRRNLDIERPTYTNLNRLISQIVSSITASLRFDGALNVDLTEFQTNLVPYPRIHFPLATYAPVISAEKAYHEQLSVAEITNACFEPANQMVKCDPRHGKYMACCLLYRGDVVPKDVNAAIAAIKTKRSIQFVDWCPTGFKVGINYQPPTVVPGGDLAKVQRAVCMLSNTTAIAEAWARLDHKFDLMYAKRAFVHWYVGEGMEEGEFSEAREDMAALEKDYEEVGIDSYEDEDEGEE
B3: recombinant mouse α4A/β2A tubulin heterodimer (complex)
chain 1: B2 chain
chain 2: […]

Columns and labels:
cryo-EM structure = target: the molecule itself; assay: cryo-EM structure
[1] = target: the molecule itself; assay: TIRF microscopy of assembled microtubules

Protein | binding result (cryo-EM structure) | binding result [1]
B1 | binds | 
B2 | binds | 
B3 |  | binds
